Source: US10913773B2, “Bicyclic peptidyl inhibitor of tumor necrosis factor-alpha” (Ohio State Innovation Foundation, priority 2016, dated 2021)
Each block holds one molecule with its values, some of them ahead of it. Starred links: 1 amine or outer side, 2 acyl side, 3 side chain; linkers in the order of their positions; H or OH if unused. Positions of bridges follow the written chain, without caps; N, C: chain ends. Non-standard residues stand in square brackets, D forms with d. Residues, ends and D or L forms follow the SMILES beside them. Groups on a side chain read outwards from the residue. Primed or numbered codes have the meaning given here. No end group written: not given here. *: point of attachment. Lys(5-FITC)NH2 = NC(=O)[C@H](CCCCNC(=S)Nc1ccc2c(c1)C(=O)OC21c2ccc(O)cc2Oc2cc(O)ccc21)N*; FITC(3) = fluorescein isothiocyanate (N6-fluorescein-thiocarbamoyl on Lys); FITC = O=C1OC2(c3ccc(O)cc3Oc3cc(O)ccc32)c2ccc(NC(=S)*)cc21; Trimesoyl = O=C(c1cc(C(=O)[*:2])cc(C(=O)[*:3])c1)[*:1]; trimesoyl″ = benzene-1,3,5-tricarbonyl scaffold; FITC′ = fluorescein isothiocyanate, on Lys NZ; Phg = N[C@H](C(=O)O)c1ccccc1; 3Abz = Nc1cccc(C(=O)O)c1; Nle = CCCC[C@H](N)C(=O)O; Dap = NC[C@H](N)C(=O)O; AEEA = NCCOCCOCC(=O)O; NHiPr = CC(C)N*

Key:
TNFα = target: T1, TNFα (Homo sapiens, UniProt P01375); assay: Fluorescence anisotropy (FA) binding of fluorescently labeled bicyclic peptides to TNFα; details: for Kd: Table 5, residue 11 variants with Lys(FITC)
T1 construct: ybbR tag (13 aa) (N); made in house; host or cells: Escherichia coli
Method: FITC-labeled bicyclic peptide (50 or 100 nM) were incubated with varying concentrations of TNFα (0-5 μM) in 30 mM HEPES, pH 7.4, 150 mM NaCl, and 2 mM magnesium acetate for 2 h. The FA values were measured on a Molecular Devices Spectramax M5 spectrofluorimeter, with excitation and emission wavelengths at 485 and 525 nm, respectively. Equilibrium dissociation constants (KD) were determined by plotting the FA values as a function of TNFα concentration and fitting the data to the following equation
[formula] where Y is the measured anisotropy at a given TNFα concentration x; L is the bicyclic peptide concentration; Qb/Qf is the correction fact for dye-protein interaction; Amax is the maximum anisotropy when all the peptides are bound to TNFα, while Amin is the minimum anisotropy. Competition experiments were performed by incubating 100 nM Asn-Asn-Asn-Lys(FITC)-labeled anticachexin C1 (Table 1), 2 μM of TNFα, and varying concentrations of unlabeled competitor peptide (0-20 μM) in the above buffer for 2 h. The FA values were plotted against the competitor peptide concentration to determine the IC50 values.
To identify residues significant for TNFα binding, each residue of anticachexin C1 (other than D-alanine at position-3, L-lysine at position-4, and L-2,3-diaminopropionic acid (Dap) at position-10) was individually replaced with an alanine (or D-alanine). To facilitate binding analysis by fluorescence anisotropy (FA), a tetrapeptide NNNK (SEQ ID NO: 1) was added to the C-terminus of each bicyclic peptide and the lysine side chain was labeled with fluorescein isothiocyanate (FITC) during solid-phase synthesis (Scheme 1). The three asparagine residues were added to improve the aqueous solubility of the bicyclic peptides. The bicyclic peptide was prepared by first synthesizing the full-length linear sequence on Rink amide resin using standard Fmoc/HBTU chemistry. The side chains of the two internal cyclization residues, L-lysine and Dap, were protected with monomethoxytrityl (Mmt) groups, whereas the C-terminal lysine was protected with an allyloxycarbonyl (Alloc) group. After removal of the N-terminal Fmoc group, a trimesic acid was coupled to the N-terminal amine using HBTU as the coupling agent. Next, the Mmt groups were selectively removed from the Lys and Dap side chains by 2% TFA and the peptide was cyclized by treatment with (benzotriazol-1-yloxy)tripyrrolidinophosphonium hexafluorophosphate (PyBOP). The Alloc group on the C-terminal lysine side chain was removed by treatment with Pd(PPh3)4 and the bicyclic peptide was selectively labeled at the C-terminal lysine by treating the resin with FITC. […] On the other hand, phenylglycine (Phg)-1 and glycine-7 play more minor roles in binding.

TNFα-TNFR1 interaction = target: T2, TNFα-TNFR1 interaction (Homo sapiens, UniProt P01375); assay: ELISA inhibition of TNFα-TNFR1 interaction (immobilized biotinylated TNFα, TNFR1-HRP); assay type: binding; details: Table 5; peptides without Lys(FITC) label
T2 construct: made in house; host or cells: Escherichia coli (TNFα)
Method: Inhibition of TNFα-TNRF1 interaction by ELISA was carried out as previously described (Lian, W.; et al., supra).
Because of its high-throughput capability, FA analysis had been used to generate all of the SAR data described above. […] To confirm the SAR data obtained by FA analysis, some of the compounds in Table 5 (as well as new compounds) were resynthesized without the Lys(FITC) label and employed a more sensitive ELISA-based assay to determine the IC50 values for inhibition of the TNFα-TNFR1 interaction. Briefly, biotinylated TNFα was immobilized onto a NeutrAvidin-coated surface. TNFR1 conjugated with horseradish peroxidase (HRP) (0.5 nM) was added along with different concentrations of a peptide inhibitor. After washing, the amount of bound TNFR1-HRP was quantitated by ELISA. […] In agreement with the FA results, either extension at the C-terminus of β-Ala with another amino acid (C1-67 to C1-70) or side-chain modification of β-Ala (C1-71 to C1-73) decreased TNFα binding.

[1] = target: T3, Recombinant TNFα containing an N-terminal 13-aa ybbR tag (human, UniProt P01375 77-233, biotin at the ybbR tag in the ELISA assays); assay: FA; against C1
T3 construct: Expressed in E. coli; Same construct used unlabelled (FA) and biotinylated on NeutrAvidin (ELISA); also called tumor necrosis factor-alpha; human TNFα; not shown: N-terminal 13-aa ybbR tag
Method: (§1) The FA values were measured on a Molecular Devices Spectramax M5 spectrofluorimeter, with excitation and emission wavelengths at 485 and 525 nm, respectively. Equilibrium dissociation constants (KD) were determined by plotting the FA values as a function of TNFα concentration and fitting the data to the following equation $$Y = \frac{\left(Amin + \left(Amax \times \frac{Q_b}{Q_f} - Amin\right)\left(\frac{(L+x+K_d) - \sqrt{((L+x+K_d)^2 - 4Lx)}}{2L}\right)\right)}{\left(1 + \left(\frac{Q_b}{Q_f} - 1\right)\left(\frac{(L+x+K_d) - \sqrt{((L+x+K_d)^2 - 4Lx)}}{2L}\right)\right)}$$
(§2) where Y is the measured anisotropy at a given TNFα concentration x; L is the bicyclic peptide concentration; Qb/Qf is the correction fact for dye-protein interaction; Amax is the maximum anisotropy when all the peptides are bound to TNFα, while $Amin$ is the minimum anisotropy. […] The FA values were plotted against the competitor peptide concentration to determine the IC$50$ values.

[2] = target: T3, Recombinant TNFα containing an …; assay: FA, FITC-peptide + TNFα titration
Method: as §1, §2

T3 sequence (P01375 77-233): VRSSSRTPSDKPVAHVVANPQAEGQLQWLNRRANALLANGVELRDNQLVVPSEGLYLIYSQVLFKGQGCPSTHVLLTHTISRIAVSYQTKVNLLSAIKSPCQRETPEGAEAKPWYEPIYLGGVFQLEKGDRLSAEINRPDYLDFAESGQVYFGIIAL

Reduction of TNFα binding affinity (fold) (TNFα; His-9 replaced with Phe, relative to parent): ~30 fold
Molecule: CCCC[C@@H]1NC(=O)c2cc3cc(c2)C(=O)NC[C@@H](C(=O)N[C@@H](CCCCNC(=S)Nc2ccc4c(c2)C(=O)OC42c4ccc(O)cc4Oc4cc(O)ccc42)C(N)=O)NC(=O)[C@H](Cc2ccccc2)NC(=O)[C@@H](CCCCN)NC(=O)CNC(=O)[C@@H](Cc2c[nH]cn2)NC(=O)[C@H](Cc2c[nH]c4ccccc24)NC(=O)[C@H](CCCCNC3=O)NC(=O)[C@@H](CO)NC(=O)[C@H](Cc2ccc(O)cc2)NC1=O [Compound C1-50] ([Nle]Y[dS]KW[dH]G[dK]F[Dap]K(FITC)-NH2; linker N-4-10 via Trimesoyl)

Kd (TNFα): 380 ± 140 nM
Molecule: CCCC[C@@H]1NC(=O)c2cc3cc(c2)C(=O)NC[C@@H](C(=O)N[C@@H](CC(=O)NCCOCCOCC(=O)N[C@@H](CCCCNC(=S)Nc2ccc4c(c2)C(=O)OC42c4ccc(O)cc4Oc4cc(O)ccc42)C(N)=O)C(=O)NCC)NC(=O)[C@H](Cc2c[nH]cn2)NC(=O)[C@@H](CCCCN)NC(=O)CNC(=O)[C@@H](Cc2c[nH]cn2)NC(=O)[C@H](Cc2c[nH]c4ccccc24)NC(=O)[C@H](CCCCNC3=O)NC(=O)[C@@H](CO)NC(=O)[C@H](Cc2ccc(O)cc2)NC1=O [Compound C1-60] ([Nle]Y[dS]KW[dH]G[dK]H[Dap]D([AEEA-Lys(5-FITC)NH2])-NHEt; linker N-4-10 via Trimesoyl)

Kd (TNFα): 160 ± 150 nM
Molecule: CCCC[C@@H]1NC(=O)c2cc3cc(c2)C(=O)NC[C@@H](C(=O)N[C@H]2CCC[C@@H]2C(=O)NCCOCCOCC(=O)N[C@@H](CCCCNC(=S)Nc2ccc4c(c2)C(=O)OC42c4ccc(O)cc4Oc4cc(O)ccc42)C(N)=O)NC(=O)[C@H](Cc2c[nH]cn2)NC(=O)[C@@H](CCCCN)NC(=O)CNC(=O)[C@@H](Cc2c[nH]cn2)NC(=O)[C@H](Cc2c[nH]c4ccccc24)NC(=O)[C@H](CCCCNC3=O)NC(=O)[C@@H](CO)NC(=O)[C@H](Cc2ccc(O)cc2)NC1=O [Compound C1-63]

Kd (TNFα): 340 ± 230 nM
Molecule: CCCC[C@@H]1NC(=O)c2cc3cc(c2)C(=O)NC[C@@H](C(=O)N2CCC[C@@H](C(=O)NCCOCCOCC(=O)N[C@@H](CCCCNC(=S)Nc4ccc5c(c4)C(=O)OC54c5ccc(O)cc5Oc5cc(O)ccc54)C(N)=O)C2)NC(=O)[C@H](Cc2c[nH]cn2)NC(=O)[C@@H](CCCCN)NC(=O)CNC(=O)[C@@H](Cc2c[nH]cn2)NC(=O)[C@H](Cc2c[nH]c4ccccc24)NC(=O)[C@H](CCCCNC3=O)NC(=O)[C@@H](CO)NC(=O)[C@H](Cc2ccc(O)cc2)NC1=O [Compound C1-64]

Kd (TNFα): 420 ± 210 nM
Molecule: CCCC[C@@H]1NC(=O)c2cc3cc(c2)C(=O)NC[C@@H](C(=O)N[C@@H](CC(=O)NCCOCCOCC(=O)N[C@@H](CCCCNC(=S)Nc2ccc4c(c2)C(=O)OC42c4ccc(O)cc4Oc4cc(O)ccc42)C(N)=O)C(=O)NC(C)C)NC(=O)[C@H](Cc2c[nH]cn2)NC(=O)[C@@H](CCCCN)NC(=O)CNC(=O)[C@@H](Cc2c[nH]cn2)NC(=O)[C@H](Cc2c[nH]c4ccccc24)NC(=O)[C@H](CCCCNC3=O)NC(=O)[C@@H](CO)NC(=O)[C@H](Cc2ccc(O)cc2)NC1=O [Compound C1-61] ([Nle]Y[dS]KW[dH]G[dK]H[Dap]D([AEEA-Lys(5-FITC)NH2])-NHiPr; linker N-4-10 via Trimesoyl)

IC50 (TNFα-TNFR1 interaction): 1700 ± 700 nM
Molecule: CCCC[C@@H]1NC(=O)c2cc3cc(c2)C(=O)NC[C@@H](C(=O)Nc2cccc(C(N)=O)c2)NC(=O)[C@H](Cc2c[nH]cn2)NC(=O)[C@@H](CCCCN)NC(=O)CNC(=O)[C@@H](Cc2c[nH]cn2)NC(=O)[C@H](Cc2c[nH]c4ccccc24)NC(=O)[C@H](CCCCNC3=O)NC(=O)[C@@H](CO)NC(=O)[C@H](Cc2ccc(O)cc2)NC1=O [Compound C1-73] ([Nle]Y[dS]KW[dH]G[dK]H[Dap][3Abz]-NH2; linker N-4-10 via Trimesoyl)

Kd (TNFα): 1900 ± 900 nM
Molecule: CCCC[C@@H]1NC(=O)c2cc3cc(c2)C(=O)NC[C@@H](C(=O)Nc2cn(C)cc2C(=O)NCCOCCOCC(=O)N[C@@H](CCCCNC(=S)Nc2ccc4c(c2)C(=O)OC42c4ccc(O)cc4Oc4cc(O)ccc42)C(N)=O)NC(=O)[C@H](Cc2c[nH]cn2)NC(=O)[C@@H](CCCCN)NC(=O)CNC(=O)[C@@H](Cc2c[nH]cn2)NC(=O)[C@H](Cc2c[nH]c4ccccc24)NC(=O)[C@H](CCCCNC3=O)NC(=O)[C@@H](CO)NC(=O)[C@H](Cc2ccc(O)cc2)NC1=O [Compound C1-65]

Fold of Affinity Reduction [1]: 12 fold
Kd [2]: 11000 nM
B6: Anticachexin C1 Tyr5 → Ala, NNNK(FITC)-tagged (peptide)
peptide: [Phg]Y[dA]KA[dF]G[dK]H[Dap]NNNK(FITC′)-NH2
modifications: bridge (positions not given here) via trimesoyl″; not fully specified (N-terminus, bridges); also: feature: K4 labeled with FITC

The next lines start with the molecule.

Molecule: CCCC[C@@H]1NC(=O)c2cc3cc(c2)C(=O)NC[C@@H](C(=O)N[C@@H](CCCCNC(=S)Nc2ccc4c(c2)C(=O)OC42c4ccc(O)cc4Oc4cc(O)ccc42)C(N)=O)NC(=O)[C@H](Cc2c[nH]cn2)NC(=O)[C@@H](CCCCN)NC(=O)CNC(=O)[C@@H](Cc2ccccc2)NC(=O)[C@H](Cc2ccc(O)cc2)NC(=O)[C@H](CCCCNC3=O)NC(=O)[C@@H](C)NC(=O)[C@H](Cc2ccc(O)cc2)NC1=O [Compound C1-5]
Increase of TNFα binding affinity (fold) (TNFα; relative to comparator analogue named in text): ~2 fold

B1: Anticachexin C1 D-Lys8 → D-Ala, NNNK(FITC)-tagged (peptide)
peptide: [Phg]Y[dA]KY[dF]G[dA]H[Dap]NNNK(FITC(3))-NH2
modifications: linker N-4-10 via trimesoyl″
Fold of Affinity Reduction [1]: 7 fold
Kd [2]: 5900 nM

B2: Anticachexin C1 D-Phe6 → D-Ala, NNNK(FITC)-tagged (peptide)
peptide: [Phg]Y[dA]KY[dA]G[dK]H[Dap]NNNK(FITC(3))-NH2
modifications: linker N-4-10 via trimesoyl″
Fold of Affinity Reduction [1]: 4 fold
Kd [2]: 3400 nM

B3: Anticachexin C1 Gly7 → Ala, NNNK(FITC)-tagged (peptide)
peptide: [Phg]Y[dA]KY[dF]A[dK]H[Dap]NNNK(FITC(3))-NH2
modifications: linker N-4-10 via trimesoyl″
Fold of Affinity Reduction [1]: 1.5 fold
Kd [2]: 1200 nM

B4: Anticachexin C1 His9 → Ala, NNNK(FITC)-tagged (peptide)
peptide: [Phg]Y[dA]KY[dF]G[dK]A[Dap]NNNK(FITC(3))-NH2
modifications: linker N-4-10 via trimesoyl″
Fold of Affinity Reduction [1]: 5 fold
Kd [2]: 4400 nM

B5: Anticachexin C1 Tyr2 → Ala, NNNK(FITC)-tagged (peptide)
peptide: [Phg]A[dA]KY[dF]G[dK]H[Dap]NNNK(FITC′)-NH2
modifications: bridge (positions not given here) via trimesoyl″; not fully specified (N-terminus, bridges); also: feature: K4 labeled with FITC
Fold of Affinity Reduction [1]: 14 fold
Kd [2]: 13000 nM
